“And” between values parts separate entries of the source, which are not always exact repeats. Identical values can stand only once. “Also recorded” adds a separate entry of the source.
Legend:
[1] = test system: highly HLA sensitized kidney transplant recipients; experiment: Experience with anti-IL-6/IL-6R+CTLA4-Ig, CNI-free and MMF-free, in human kidney transplant recipients (case courses); format: in vivo
Excerpt: Four patients were maintained on CNI-free and MMF-free immunosuppression on anti-IL-6R or anti-IL-6+CTLA4-Ig for a prolonged time period (years) after transplant. These patients received two infusions per month as their standard immunosuppression.

[2] = test system: patients/subjects taking clazakizumab; settings: human, in vivo, cited from earlier work
[3] = test system: donor specific antibodies; experiment: clazakizumab desensitization trial: donor specific antibodies pre- and post-transplant; format: in vivo, human
Protocol: (§1) Patients entered into the afore-described clazakizumab desensitization trial (NCT03380962) where 75% were in the 99-100% Panel Reactive Antibody (PRA) range received clazakizumab 25 mg subcutaneously monthly for up to 6 months. If transplanted, they received continued clazakizumab for up to 6 M post-transplant. This group of patients are exceedingly difficult to transplant due to high likelihood of severe antibody mediated rejection and graft loss post-transplant. Antibody levels, pre-post-transplant and Treg cells were monitored at concomitant time points.
Transplant patients who were treated as described in the previous example were also monitored to assess the effect of clazakizumab on donor specific antibodies. Particularly, levels of donor specific antibodies were monitored in transplant patient samples pre- and post-transplant.

[4] = test system: HLA antibodies (class I and class II); experiment: clazakizumab desensitization trial (NCT03380962): HLA antibody levels pre- and post-clazakizumab; format: in vivo, human
Protocol: as §1
(§2) As part of a phase I/II trial of clazakizumab for desensitization, HLA sensitized patients received anti-IL-6, 25 mg SC monthly×6 doses with monitoring of HLA antibody levels and Tregs. Patients were treated pre- and post-transplant with clazakizumab. Transplanted patients received monthly clazakizumab 25 mg subcutaneously starting 5-7 days post-transplant for 12 months. Tregs were determined by flow cytometry as CD4^+, CD25^+, CD127^dim, FoxP3^+ cell populations in CD4^+ cells. Determinations were made at baseline, at transplantation and day 180 post-transplant.

[5] = test system: Treg cells (CD4+, CD25+, CD127dim, FoxP3+); experiment: Tregs by flow cytometry in clazakizumab-treated HLA sensitized patients; format: in vivo, human; settings: for Mean Treg value: baseline 3.2+1.09%, in CD4+ cells
Protocol: as §2

[6] = test system: highly HLA sensitized patients (HLAi kidney transplant); experiment: clazakizumab desensitization trial: transplantation, rejection episodes and graft loss; format: in vivo, human; settings: for highly sensitized patients able to receive transplants: after clazakizumab desensitization
Protocol: as §1, §2

monkeys = settings: monkey, in vivo; cited from earlier work
[7] = in vivo; cited from earlier work
[8] = post-transplant on clazakizumab

tocilizumab
duration of stable course with declining SCr ([1]; person on CTLA4-Ig + tocilizumab monthly): over 1.5 years | SCr course ([1]; person, chronic ABMR, on CTLA4-Ig, converted from CELLCEPT to tocilizumab monthly): stable with declining SCr

C=CC[C@@H]1/C=C(\C)C[C@H](C)C[C@H](OC)[C@H]2O[C@@](O)(C(=O)C(=O)N3CCCC[C@H]3C(=O)O[C@H](/C(C)=C/[C@@H]3CC[C@@H](O)[C@H](OC)C3)[C@H](C)[C@@H](O)CC1=O)[C@H](C)C[C@@H]2OC [tacrolimus]
biopsy toxicity finding ([1]; patient, three years after anti-IL-6R start, tapered off): toxicity seen on a biopsy

B1: clazakizumab (antibody, chains of the INN, looked up, V domains shown)
VH: EVQLVESGGGLVQPGGSLRLSCAASGFSLSNYYVTWVRQAPGKGLEWVGIIYGSDETAYATSAIGRFTISRDNSKNTLYLQMNSLRAEDTAVYYCARDDSSDWDAKFNLWGQGTLVTVSS
VL: AIQMTQSPSSLSASVGDRVTITCQASQSINNELSWYQQKPGKAPKLLIYRASTLASGVPSRFSGSGSGTDFTLTISSLQPDDFATYYCQQGYSLRNIDNAFGGGTKVEIK
notes: Genetically engineered humanized anti-IL-6 mAb
infusion reactions ([2]; iv): no infusion reactions | severity of injection site reactions ([2]; sc): mild or moderate | demyelinating disorder events [2]: rarely reported | malignancies [2]: no imbalance of malignancies | outcome of pregnancies in subjects taking clazakizumab [2]: one spontaneous abortion | reactivation of viral and other serious infections (e.g. EBV or TB) [2]: rarely reported | donor-specific antibodies present prior to transplant ([3]; at transplant): significantly reduced | DSA status of DSA+ patients ([3]; by day 180 post-transplant): negative | donor-specific antibodies present prior to transplant ([3]; post-transplant): disappeared | pathogenic antibodies ([3]; up to 3 months post-transplant): significant reduction | Mean MFI for HLA cl ([4]; post claza, pre-desensitization 13062±3123, p=0.05, nine transplanted patients): 8585±4597 MFI | Mean MFI for HLA cll ([4]; post claza, pre-desensitization 13519±2966, p=0.03, nine transplanted patients): 8344±4836 MFI | impact on HLA antibodies (class I and class II) ([4]; pre- vs post-clazakizumab 25 mg SC monthly): significant reductions; also recorded: reduced | Mean Treg value ([5]; at transplant, p=NS): 3.5+1.75% | change in Treg cells ([5]; day 180 post-transplant, still on anti-IL-6 therapy): significant increase; also recorded: dramatic increase | Mean Treg value ([5]; day 180 post-transplant, p=0.008): 12.6+9.3% | highly sensitized patients able to receive transplants [6]: all of these patients and 9/10 | highly sensitized patients able to receive transplants ([6]; listed as claza): 10 patients | grafts lost due to rejection [6, 8]: no grafts were lost; also recorded: no graft loss | transplant patients with rejection episodes [6, 8]: Two of the ten and 2 of 10 | monkeys with retained placentas in which excessive uterine hemorrhage led to moribund status (monkeys): 3 of the 5 | elimination half-life (t1/2) [7]: about 30 days
